Target: interferon receptor on MCF-7 breast carcinoma cells
Experiment: cell-based or functional assay

Binder | EC50, stimulation of Luciferase activity (pISRE-Luc reporter gene in MCF-7 cells) [pM] | ratio of the EC50 value for the mutated protein over the EC50 value for the wild-type protein (pISRE-Luc reporter gene in MCF-7 cells) [fold]
natural wild-type IFNα-5 protein (ligand) CDLPQTHSLSNRRTLMIMAQMGRISPFSCLKDRHDFGFPQEEFDGNQFQKAQAISVLHEMIQQTFNLFSTKDSSATWDETLLDKFYTELYQQLNDLEACMMQEVGVEDTPLMNVDSILTVRKYFQRITLYLTEKKYSPCAWEVVRAEIMRSFSLSANLQERLRRKE | 5.67 | –
C122S mutated IFNα-5 (ligand) CDLPQTHSLSNRRTLMIMAQMGRISPFSCLKDRHDFGFPQEEFDGNQFQKAQAISVLHEMIQQTFNLFSTKDSSATWDETLLDKFYTELYQQLNDLEASMMQEVGVEDTPLMNVDSILTVRKYFQRITLYLTEKKYSPCAWEVVRAEIMRSFSLSANLQERLRRKE | 93.3 | 18.3

Reference: patent US7358333 (GENODYSSE S A, dated 2008)
